Substitutions are numbered along the chain they refer to. Names and notes keep the numbering of the source.
B1: H1.119_L1 (antibody, V domains shown)
VH: EVQLVESGGGLVQPGGSLRLSCAASGFTFSSFGMHWVRQAPGKGLEWVSYISSGSSIIYYADSVKGRFTISRDNAKNSLYLQMNSLRAEDTAVYYCARGHRLVWSPDYWGQGTLVTVSS
VL: DIVMTQSPDSLAVSLGERATINCKSSQSLLNSGNQKNYLTWYQQKPGQPPKLLIYWASTRESGVPDRFTGSGSGTDFTLTISSLQAEDVAVYYCQNDYSYPFTFGSGTKLEIKR
notes: also called VH-G108H; Kabat 96
B2: H1.146_L1 (antibody, V domains shown)
VH: B1 VH with H100G, V103Y
VL: B1 VL
notes: also called VH-V111Y; Kabat 99
B3: H1.145_L1 (antibody, V domains shown)
VH: B1 VH with H100G, V103A
VL: B1 VL
notes: also called VH-V111A; Kabat 99
B4: H1.142_L1 (antibody, V domains shown)
VH: B1 VH with H100G, V103T
VL: B1 VL
notes: also called VH-V111T; Kabat 99
B5: H1.125_L1 (antibody, human IgG1, kappa, V domains shown)
VH: B1 VH with H100G, R101E
VL: B1 VL
notes: also called VH-R109E; Kabat 97; copies: 2 + 2
B6: mAb C H1.132_L1 (antibody, V domains shown)
VH: B1 VH with H100G, R101W
VL: B1 VL
notes: copies: 2 + 2
B7: H1.130_L1 (antibody, human IgG1, kappa, V domains shown)
VH: B1 VH with H100G, R101Y
VL: B1 VL
notes: also called VH-R109Y; Kabat 97; copies: 2 + 2
B8: H1.134_L1 (antibody, V domains shown)
VH: B1 VH with H100G, L102F
VL: B1 VL
notes: also called VH-L110F; Kabat 98
B9: H1.123_L1 (antibody, V domains shown)
VH: B1 VH with H100Y
VL: B1 VL
notes: also called VH-G108Y; Kabat 96
B10: H1.137_L1 (antibody, V domains shown)
VH: B1 VH with H100G, L102W
VL: B1 VL
notes: also called VH-L110W; Kabat 98
B11: H1.126_L1 (antibody, V domains shown)
VH: B1 VH with H100G, R101D
VL: B1 VL
notes: also called VH-R109D; Kabat 97
B12: H1.133_L1 (antibody, V domains shown)
VH: B1 VH with H100G, L102I
VL: B1 VL
notes: also called VH-L110I; Kabat 98
B13: H1.138_L1 (antibody, V domains shown)
VH: B1 VH with H100G, L102D
VL: B1 VL
notes: also called VH-L110D; Kabat 98
B14: H1.143_L1 (antibody, V domains shown)
VH: B1 VH with H100G, V103I
VL: B1 VL
notes: also called VH-V111I; Kabat 99
B15: H1.131_L1 (antibody, V domains shown)
VH: B1 VH with H100G, R101I
VL: B1 VL
notes: also called VH-R109I; Kabat 97
B16: H1.128_L1 (antibody, V domains shown)
VH: B1 VH with H100G, R101S
VL: B1 VL
notes: also called VH-R109S; Kabat 97
B17: H1.124_L1 (antibody, V domains shown)
VH: B1 VH with H100G, R101K
VL: B1 VL
notes: also called VH-R109K; Kabat 97
B18: H1.135_L1 (antibody, V domains shown)
VH: B1 VH with H100G, L102V
VL: B1 VL
notes: also called VH-L110V; Kabat 98
B19: H1.144_L1 (antibody, V domains shown)
VH: B1 VH with H100G, V103L
VL: B1 VL
notes: also called VH-V111L; Kabat 99
B20: H1.139_L1 (antibody, V domains shown)
VH: B1 VH with H100G, L102A
VL: B1 VL
notes: also called VH-L110A; Kabat 98
B21: H1.127_L1 (antibody, V domains shown)
VH: B1 VH with H100G, R101H
VL: B1 VL
notes: also called VH-R109H; Kabat 97
B22: H1.136_L1 (antibody, V domains shown)
VH: B1 VH with H100G, L102Y
VL: B1 VL
notes: also called VH-L110Y; Kabat 98
B23: H1.141_L1 (antibody, V domains shown)
VH: B1 VH with H100G, L102K
VL: B1 VL
notes: also called VH-L110K; Kabat 98
B24: H1.129_L1 (antibody, V domains shown)
VH: B1 VH with H100G, R101G
VL: B1 VL
notes: also called VH-R109G; Kabat 97
B25: H1_L1.22 (antibody, V domains shown)
VH: B1 VH with H100G
VL: B1 VL with G33Y
notes: also called VL-G33Y; Kabat 27f
B26: H1_L1.25 (antibody, V domains shown)
VH: B1 VH with H100G
VL: B1 VL with N34E
notes: also called VL-N34E; Kabat 28
B27: H1_L1.23 (antibody, V domains shown)
VH: B1 VH with H100G
VL: B1 VL with N34D
notes: also called VL-N34D; Kabat 28
B28: H1_L1.24 (antibody, V domains shown)
VH: B1 VH with H100G
VL: B1 VL with N34H
notes: also called VL-N34H; Kabat 28

biological target: T1, human PD-1-His (human, UniProt Q15116 25-167, limits assumed); experiment: Octet
T1 construct: Antigen of the Octet assays; not shown: His tag
T1 sequence (Q15116 25-167 limits assumed): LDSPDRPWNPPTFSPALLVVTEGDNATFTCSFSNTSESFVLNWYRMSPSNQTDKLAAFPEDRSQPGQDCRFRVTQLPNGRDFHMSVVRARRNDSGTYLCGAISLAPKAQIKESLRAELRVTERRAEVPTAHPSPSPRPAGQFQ

Row | Kd [nM] | koff [s⁻¹] | kon [M⁻¹ s⁻¹] | Binder
1 | 186 | 0.0376 | 202000 | B1
2 | 102 | 0.0157 | 155000 | B2
3 | 110 | 0.0177 | 161000 | B3
4 | 88 | 0.0118 | 134000 | B4
5 | 18.7 | 0.0052 | 278000 | B5
6 | 9.63 | 0.00218 | 227000 | B6
7 | 22.1 | 0.00505 | 228000 | B7
8 | 60.8 | 0.0088 | 145000 | B8
9 | 350 | 0.0538 | 154000 | B9
10 | 32.6 | 0.0056 | 172000 | B10
11 | 43.1 | 0.0109 | 254000 | B11
12 | 49.5 | 0.00753 | 152000 | B12
13 | 116 | 0.0128 | 110000 | B13
14 | 35.6 | 0.00633 | 178000 | B14
15 | 43.5 | 0.00878 | 202000 | B15
16 | 32.8 | 0.00608 | 186000 | B16
17 | 48.8 | 0.00674 | 138000 | B17
18 | 46.7 | 0.00685 | 147000 | B18
19 | 130 | 0.0174 | 134000 | B19
20 | 98.9 | 0.011 | 111000 | B20
21 | 30.8 | 0.00578 | 188000 | B21
22 | 54.5 | 0.00863 | 158000 | B22
23 | 118 | 0.0132 | 112000 | B23
24 | 43.2 | 0.00719 | 167000 | B24

biological target: T1, human PD-1-His; experiment: Octet; remark: another data set of the same source

Row | Kd [nM] | koff [s⁻¹] | kon [M⁻¹ s⁻¹] | Binder
25 | 271 | 0.0269 | 99100 | B25
26 | 152 | 0.0123 | 80900 | B26
27 | 57.6 | 0.006 | 104000 | B27
28 | 200 | 0.0183 | 91600 | B28

Reference: US20240294593A1 (Genentech, published 2024)
